B1: Protein S100-A1 (Homo sapiens), P23297 (parent)
chain: MGSELETAMETLINVFHAHSGKEGDKYKLSKKELKELLQTELSGFLDAQKDVDAVDKVMKELDENGDGEVDFQEYVVLVAALTVACNNFFWENS
partner: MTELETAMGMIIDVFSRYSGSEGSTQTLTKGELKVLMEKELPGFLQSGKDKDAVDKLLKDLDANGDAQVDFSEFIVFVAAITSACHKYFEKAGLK
B2: Protein S100-P (Homo sapiens), P25815 (parent)
chain: B1 partner

Variants of: B1
Settings: with S100P

| Variant | effect of a mutation on the interaction |
| --- | --- |
| L12H;F16A;F72L | disrupting interaction |
| F16A | disrupting interaction |

Variants of: B2
Settings: with S100A1, P23297

| Variant | effect of a mutation on the interaction |
| --- | --- |
| I11A;I12A | disrupting interaction |
| F15A | disrupting interaction |
| I75G | disrupting interaction |
| I75G;V76G | decreasing interaction |
| F71A | disrupting interaction |
| F74G | disrupting interaction |
| F74V | disrupting interaction |
